From patent US10119980B2, “Method for detection of basic peptide and reagent for detection of basic peptide” (SYSMEX CORPORATION, priority 2009, dated 2018)

Tests used:
partial ACTH peptide [1] = target: T1, partial ACTH peptide (Homo sapiens, UniProt P01189); test: OD550 Hill plot analysis in serum-based solution versus control solution; assay type: binding
T1 construct: consisting of amino acids of positions 1 to 24 of ACTH; purchased Biologica Co
Experimental: The peptide was dissolved in ultrapure water and mixed with serum collected from a healthy volunteer in USA (person) (SUNFCO) to prepare the serum-based sample containing the basic peptide of interest. The serum-based samples were prepared so as to adjust the final concentrations of the partial ACTH peptide and serum as shown in (3) below.
The denatured BSA solution prepared in the above (1) (50 μl) was mixed with the sample prepared in (2) followed by addition of ultrapure water to prepare a total volume of 250 μl of mixed solution containing serum (hereinafter referred to as “serum-based solution”). In the preparation, the serum-based sample was mixed so as to adjust a final concentration of the partial ACTH peptide of to 0 to 80 μM and adjust a final concentration of serum of to an equivalent to 100-fold dilution in the mixed solution. For a control, a mixed solution was also prepared without serum (hereinafter referred to as “control solution”).
The thus-prepared mixed solutions were measured for absorbance at the wavelength of 550 nm (OD550) with a spectrophotometer UV-2500PC (Shimadzu Corporation).
OD=(peptide concentration)^n/[(peptide concentration)^n+[Kd×(1+CHSA/Ki)]^n]

[2] = target: T2, partial ACTH peptide (positions 1 to 24 of ACTH) (Homo sapiens, UniProt P01189); test: Turbidity (OD550) measurement and Hill plot analysis of albumin reagents mixed with partial ACTH peptide; assay type: binding
T2 construct: consisting of the amino acids of positions 1 to 24 of ACTH
T2 sequence (P01189 138-161): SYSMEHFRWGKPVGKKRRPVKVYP
Experimental: BSA (Sigma-Aldrich) was dissolved in Milli-Q® water (Millipore) to prepare a BSA solution (1.0 w/v %). The BSA solution was divided into two and one was designated as a non-denatured BSA solution and the other was autoclaved at 110° C. for 15 minutes to obtain a heat-denatured BSA solution.
A partial ACTH peptide (Peptide Institute, Inc.) consisting of the amino acids of positions 1 to 24 of ACTH was used as the basic peptide of interest. The peptide was dissolved in ultrapure water to prepare a sample containing the basic peptide of interest (1.0 mg/ml).
The heat-denatured BSA solution prepared in the above (1) (50 μl) was mixed with the sample prepared in (2) followed by addition of ultrapure water to prepare a total volume of 250 μl of a mixed solution (final concentration of heat-denatured BSA: 0.2 w/v %). In this preparation, the sample was mixed so as to obtain a final concentration of the partial ACTH peptide in the mixed solution of 0 to 150 μM. A comparative mixed solution was also prepared in the similar manner except that the non-denatured BSA solution was used instead of the heat-denatured BSA solution.
The thus-prepared mixed solutions were measured for absorbance at the wavelength of 550 nm (OD550) in a spectrophotometer UV-2500PC (Shimadzu Corporation). The obtained results were subjected to Hill plot analysis with KaleidaGraph (HULINKS, Inc.) to calculate the values of Kd and the Hill coefficient of heat-denatured BSA and non-denatured BSA.
BSA (Sigma-Aldrich) was dissolved in Milli-Q® water (Millipore) to prepare a BSA solution (1.0 w/v %). The BSA solution was divided into five aliquots among which one was designated as a non-denatured BSA solution (heat denaturation period: 0 min) and the rest of four were heated in an autoclave at 110° C. for 5, 15, 60 and 120 min, respectively, to obtain heat-denatured BSA solutions.
The Kd value and Hill coefficient of BSA at respective heat denaturation periods were calculated. […]
The Kd value and Hill coefficient were calculated for the mixed solutions. […]

partial ACTH peptide [3] = target: T1, partial ACTH peptide; test: Detection capacity (turbidity, OD550) at various final concentrations of reagent for detection; set-up: key: “Y” denotes turbidity appearing; “N” does the absence of turbidity
Experimental: BSA (Sigma-Aldrich) was dissolved in ultrapure water to prepare a BSA solution (5.0 w/v %). The BSA solution was heated in an autoclave at 115° C. for 15 minutes to obtain a heat-denatured BSA solution.
A partial ACTH peptide consisting of amino acids of positions 1 to 24 of ACTH (Biologica Co.) was used as the basic peptide of interest. The peptide was dissolved in ultrapure water to prepare a sample containing the basic peptide of interest (1.0 mg/ml).
The heat-denatured BSA solution prepared in (1) was mixed with 30 μl or 60 μl of the sample prepared in (2) followed by addition of ultrapure water to prepare a total volume of 250 μl of mixed solutions. In the preparation, the reagent for detection (solution of heat-denatured BSA) was mixed with the respective samples so as to obtain a final concentration of the reagent for detection in the mixed solution of 0.1 to 5%.
The thus-prepared mixed solutions were measured for values of absorbance at the wavelength of 550 nm (OD550) with a spectrophotometer UV-2500PC (Shimadzu Corporation). The results obtained are summarized in Table 6, where “Y” denotes turbidity appearing and “N” does the absence of turbidity.

partial ACTH peptide [4] = target: T1, partial ACTH peptide; test: OD550 detection of basic peptide concentrated by OFFGEL fractionation from serum-containing specimen; conditions: Heat-denatured BSA: Yes; concentrated partial ACTH peptide fraction after OFFGEL fractionation, MES-HCl buffer pH 5.0
Experimental: A partial ACTH peptide consisting of amino acids of positions 1 to 24 of ACTH (Biologica Co.) was used as the basic peptide of interest. The peptide was dissolved in ultrapure water and mixed with serum of a healthy USA subject (SUNFCO) to prepare an actual serum sample containing the basic peptide of interest. The sample was prepared so as to obtain the concentrations of the partial ACTH peptide and serum as shown in (3) below.
(3) Preparation of sample solution containing concentrated basic peptide of interest. A glycerol solution (Agilent technologies; 6 ml) and an OFFGEL Buffer solution (Agilent technologies; 600 μl) were mixed followed by addition of ultrapure water to prepare a total volume of 50 ml of peptide buffer solution (×1.25), the pH of which is 3-10. This solution was mixed with the sample of the above (2) to prepare a peptide buffer solution (×1) with the concentration of 20 μM of the partial ACTH peptide and the concentration equivalent to 1000-fold dilution of serum. This solution was fractionated with using a High Resolution IPG gel for fraction whose pH is pH 3-10 on the OFFGEL fractionator (Agilent Technologies). […]
The thus-prepared mixed solutions were measured for absorbance at the wavelength of 550 nm (OD550) in a spectrophotometer UV-2500PC (Shimadzu Corporation).

[5] = Control solution (without serum)
[6] = Serum solution (serum equivalent to 100-fold dilution)
[7] = Example 1, final BSA 0.2 w/v %, peptide 0 to 150 μM, OD550 Hill plot
[8] = Nucleic acid: Yes (salmon sperm DNA, final 10 μM)
[9] = heat denaturation period 5 min at 110° C.
[10] = heat denaturation period 15 min at 110° C.
[11] = heat denaturation period 60 min at 110° C.
[12] = heat denaturation period 120 min at 110° C.

Substance: Heat-denatured BSA: BSA solution (1.0 w/v %) in Milli-Q water autoclaved at 110° C. for 15 minutes; reagent for detection
- Hill coefficient n (partial ACTH peptide [1]; [5]): 4
- Kd (partial ACTH peptide [1]; [5]): 25 µM
- Hill coefficient n (partial ACTH peptide [1]; [6]): 3.4
- Kd (partial ACTH peptide [1]; [6]): 29 µM
- Hill coefficient n [2, 7]: 8
- Kd [2, 7]: 30 µM
- Hill coefficient n ([2]; Nucleic acid: No): 11
- Kd ([2]; Nucleic acid: No): 40 µM
- Hill coefficient n [2, 8]: 8
- Kd [2, 8]: 30 µM
- change in OD550 with increasing partial ACTH peptide concentration ([2]; albumin reagent mixed with partial ACTH peptide): increased in a concentration dependent manner
- Hill coefficient n [2, 9]: 5
- Kd [2, 9]: 33 µM
- Hill coefficient n [2, 10]: 8
- Kd [2, 10]: 30 µM
- Hill coefficient n [2, 11]: 6
- Kd [2, 11]: 28 µM
- Hill coefficient n [2, 12]: 4
- Kd [2, 12]: 33 µM
- Detection capacity (in the case of 30 μM peptide) (partial ACTH peptide [3]; final conc. of reagent 0.1 %): Y
- Detection capacity (in the case of 60 μM peptide) (partial ACTH peptide [3]; final conc. of reagent 0.1 %): Y
- Detection capacity (in the case of 30 μM peptide) (partial ACTH peptide [3]; final conc. of reagent 0.2 %): Y
- Detection capacity (in the case of 60 μM peptide) (partial ACTH peptide [3]; final conc. of reagent 0.2 %): Y
- Detection capacity (in the case of 30 μM peptide) (partial ACTH peptide [3]; final conc. of reagent 0.4 %): Y
- Detection capacity (in the case of 60 μM peptide) (partial ACTH peptide [3]; final conc. of reagent 0.4 %): Y
- Detection capacity (in the case of 30 μM peptide) (partial ACTH peptide [3]; final conc. of reagent 0.5 %): Y
- Detection capacity (in the case of 60 μM peptide) (partial ACTH peptide [3]; final conc. of reagent 0.5 %): Y
- Detection capacity (in the case of 30 μM peptide) (partial ACTH peptide [3]; final conc. of reagent 0.7 %): Y
- Detection capacity (in the case of 60 μM peptide) (partial ACTH peptide [3]; final conc. of reagent 0.7 %): Y
- Detection capacity (in the case of 30 μM peptide) (partial ACTH peptide [3]; final conc. of reagent 1.0 %): Y
- Detection capacity (in the case of 60 μM peptide) (partial ACTH peptide [3]; final conc. of reagent 1.0 %): Y
- Detection capacity (in the case of 30 μM peptide) (partial ACTH peptide [3]; final conc. of reagent 5.0 %): Y
- Detection capacity (in the case of 60 μM peptide) (partial ACTH peptide [3]; final conc. of reagent 5.0 %): Y
- OD550 (partial ACTH peptide [4]): 0.03
